The target of assay [1] is T1, SARS-CoV-2 RBD-Flag-His protein (SARS-CoV-2, UniProt P0DTC2 319-541). Put plainly: BLI. Background: BLI is a label-free optical method that tracks binding on a fibre tip over time.
In assay [2] the target is T1, SARS-CoV-2 RBD-Flag-His protein. Nature of the assay: BLI. This is another data set of the same source.

In general, koff refers to the first-order rate constant of dissociation. Low values mean a long-lived complex, high ones a short-lived complex. The term Kd denotes the concentration at which binding is half-saturated.

B1: RBD-chAb-45 (antibody, V domains shown)
VH: EVQLQQSGPELVKPGASVKISCKTSGYTFTEYTIYWVKQSLGKSLEWIGGNNPNNDDTTYKQFFKGKATLTVDKSSSTAYMELRSLTSEDSAVYYCARDGYPYYYALDFWGQGTSVTVSS
VL: DIVMTQSQKFMSTSVGDRVSVTCKSSQNVGTNVAWYQQKPGQSPKALIYSASYRYSGVPDHFTGSGSGTDFTLTISNVQSADLAEYFCQQYNNYPWTFGGGTKLEIK
B1 yielded an off-rate constant (koff) in assay [1] of 0.000282 s⁻¹. For the same molecule, the Kd in assay [2] was 282 pM.

(Values after article PMC8530329 (2021).)
